Experimental data published in publication PMC2742502 (Journal of immunology (Baltimore, Md. : 1950), 2008).

Assays:
PBMC = format: cell-based, human
[1] = biological target: purified HLA A*0201 molecules (with human β2-microglobulin) (human (endogenous in EBV transformed cell lines) | human); experiment: radioligand binding
[2] = system: T cells from healthy donors; details: heteroclitic HLA-A0201-restricted epitope; cited from earlier work

In the case of phytohemmaglutinin [PHA], the “response in positive control” value (PBMC) is reported as “uniformly positive”.

In the case of “HCV NS3 1406-1415 epitope peptide … (Lp5)”, the IC50 [1] is reported as 5 nM.

B1: Melan-A epitope (L26–35): heteroclitic HLA-A0201-restricted Melan-A epitope (peptide, UniProt Q16655 1-118, looked up, variant A27L)
Melanoma antigen recognized …: MPREDAHFIYGYPKKGHGHSYTTAEELAGIGILTVILGVLLLIGCWYCRRRNGYRALMDKSLHVGTQCALTRRCPQEGFDHRDSKVSLQEKNCEPVVPNAPPAYEKLSAEQSPPPYSP
modifications: epitope 26-35
For B1, the “frequency of T cells recognizing the epitope” value [2] is listed as “relatively frequent”.
